# According to the RNAGym collection of RNA variant scans (doi:10.1073/pnas.2313332121):
# Fewer inactive variants are shown than the library holds.
# B1: TPR 5TU (parent)
# chain: GGAUCUUCUCGAUCUAACAAAAAAGACAAAUCUGCCACAAAGCUUGAGAGCAUCUUCGGAUGCAGAGGCGGCAGCCUUCGGUGGCGCGAUAGCGCCAACGUUCUCAACUAUGACACGCAAAACGCGUGCUCCGUUGAAUGGAGUUUAUCAUG
# Variants of: B1
# Test: polymerase ribozyme fitness, log enrichment relative to wild type (log ratio); higher = more active; in vitro selection for triplet polymerase activity
# In short: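 Only genotypes with ≥10 input reads and ≥1 read per output were kept after Illumina sequencing of input and output libraries. These libraries were PCR-built, transcribed mutants of each subunit of a heterodimeric triplet polymerase ribozyme, each put through one triplicate in vitro selection round with frozen incubation at −7 °C, gel excision of extended constructs, streptavidin-bead capture and RT-PCR. Fitness is a logarithmic ratio of genotype enrichment to wild-type enrichment, from inverse-variance-weighted replicate averages, with the logarithm in base 2.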
row,Variant,polymerase ribozyme fitness (log ratio)
1,A23G A73U G81C,-4.17
2,A24C G67A G92U,≤ -4.2
3,A24U G50C C57U C79G C118G U148C,≤ -4.2
4,A23G A26U G94C A110C,≤ -4.2
5,A24U A113C,-3.05
6,A23U C85A,≤ -4.2
7,A24G G50C C72U C87G U111C,≤ -4.2
8,G25C A40U C87U C93A C95U,≤ -4.2
9,G25C C105U U144C,-2.67
10,A22U C38U C51U U53A C54A C85G,≤ -4.2
11,A24U C27U C36U G58C G83A G112U A121G G124C,≤ -4.2
12,G25A C72U G80U C93A C114U,≤ -4.2
13,G25U A30G C51A C105U G133C,≤ -4.2
14,G25A C27G A30C C32G G68A C87A A107U,≤ -4.2
15,A23C G34U C43U A60G C132U,-4.02
16,A22U U56A A106U A107C A142G,≤ -4.2
17,A24G C51G G59C G92C C99U C125U,≤ -4.2
18,A24U C57A A89U C95U C118U G143U,≤ -4.2
19,A22U C96U C118U,-0.15
20,G25A C35U U56A A60C C85A C93U A106C,≤ -4.2
21,A24U A40C U55A A60G C75G C96G U104G,≤ -4.2
22,A23C G141C,-3.64
23,A24C A40U G94A C116A,≤ -4.2
24,A22U C76U,0.515

row,Variant,polymerase ribozyme fitness (log ratio)
1,A24C A37C G59A C99G A107U,≤ -4.2
2,G25C A28G G80C G83A,-4.19
3,A23C G48C G68C C99U U101C A122U U144G,≤ -4.2
4,G25A C35U G84A C87A A91U C118U A142G,≤ -4.2
5,G25C G58A C72A G80A C87A C118G,≤ -4.2
6,G25C A39U U44C A91G C95U,≤ -4.2
7,A22U G83C G84A U101A C123A,-4.08
8,A24G G92A A121U A147G,≤ -4.2
9,A22U G86U,-1.05
10,A24U C54A G58A G84A A120G G126U,-1.19
11,A23G A26C G141A C149G,≤ -4.2
12,A24U U56A G62C,-1.06
13,A24U G42A G88A G92A A115C,≤ -4.2
14,A24U A28U A39C G59C A60U A66G G68C C79G G81A C116G C125U,≤ -4.2
15,A23G A52U C118A A122U,≤ -4.2
16,A23G A47C,-2.96
17,A23C A39U G46U U90A C96A C99U C114G G141C,≤ -4.2
18,G25A U56A,-1.67
19,A24U A52G C79G G94A A107G,≤ -4.2
20,A22U G71A,-2.64
21,A23U A41G,-3.88
22,A24U G58A G88U,≤ -4.2
23,A22U A39C U61A C72U C85G G141A,≤ -4.2
24,A24C G50C U56A C93U G94C U148C,≤ -4.2

row,Variant,polymerase ribozyme fitness (log ratio)
1,G25U A52C C63U G88C U127C,≤ -4.2
2,A23U C99U,-3.84
3,A22U C43U A47C A91C C108U A115U A121C,≤ -4.2
4,A24C C43U C93G G141U,≤ -4.2
5,A24U A37U G42C C75G,-3.99
6,A22U C85U,-0.371
7,A24G G124U,-4.06
8,A22U G50U C96G,0.467
9,G25C U61A C75G A91G A97U,-4.05
10,A23U C57U,-3.64
11,G25U A49G A52U U90G C125G A142U G143C,≤ -4.2
12,A22U A106G,1.21
13,A22U A52G C75U G83U U134C A142C,-3.51
14,A22U A49U G81U G86C G141C,-4.13
15,A24G A91U,≤ -4.2
16,G25A A28U A41U A66U G83U U111G C118U,≤ -4.2
17,A23U G68A A73U C99U,≤ -4.2
18,A23G U56A A97G A115G,-3.42
19,A22U G94A,-0.557
20,A24G A52C G68A U151G,≤ -4.2
21,A24C C85U,-3.65
22,A22U C35U U55A G59A G65A C85U C105A,≤ -4.2
23,A24U G59U C87U G128A G140U U151C,≤ -4.2
24,A23G A29G C95G G152U,-3.84

row,Variant,polymerase ribozyme fitness (log ratio)
1,A23U A119G A120U G152A,≤ -4.2
2,A24G G83U,-3.03
3,A23C A64G G70C,≤ -4.2
4,A23G C32G C57U G74A C93U U101G A137U,≤ -4.2
5,A24U C93U U104G,-1.84
6,A24U G88C U139C U144C,≤ -4.2
7,A22U C36U U78C U146C,-3.63
8,G25C U78G C87U G117U C118U U148A,≤ -4.2
9,A24G C57A G59U C75A U90G C103G C108U A110C G133U G141C,≤ -4.2
10,A24U U33G U77A C87U,≤ -4.2
11,G25U A49C G88U A97G,≤ -4.2
12,A23U C96U U127C U144G A150G,≤ -4.2
13,A23U G50A C95U A137G,≤ -4.2
14,A24C A37C U53A A66U C95A C114G U135C U144A,≤ -4.2
15,A23G C51G U53A A60G G84A U104G C116U A121C,≤ -4.2
16,A24U A41U G62C G70C C85G G152A,≤ -4.2
17,A22U C95U C103G,-1.55
18,A22U A23C,-4
19,A24U A52C C87A,≤ -4.2
20,A24U C79U U102G C118U A119G G140A,≤ -4.2
21,G25A C51U G59C G88A U102G G136U,≤ -4.2
22,A23U U33A U45A G46A C96U,-4.15
23,A24U C35U G42C C93U G136C A142G,-4.03
24,A24U C93U C118U A121G,-1.37

row,Variant,polymerase ribozyme fitness (log ratio)
1,A23C A26U U53A C85A G136U,≤ -4.2
2,G25U A26G G68C A107G U135C,≤ -4.2
3,A23C U45C A52C U55A C75G C76U C93A A119G G143U,-4.17
4,A22U C57G C93G U151G,≤ -4.2
5,A22U G86A G92U,-1.74
6,A24C G67C C87U A122U A142G,≤ -4.2
7,A22U U55A G94A A98U U135A,-2.29
8,A22U G50U,1.37
9,A22U G50C,-2.99
10,G25C C69G C96A C99U C118A,≤ -4.2
11,A22U C36G C105G,≤ -4.2
12,A22U A26C A47C C57A G62A G86A A89U A106U C108G,≤ -4.2
13,A23C U56A G86U A115G,≤ -4.2
14,A22U C96U,0.237
15,A22U C27G C57G U61A C95U U104G U145G,≤ -4.2
16,A22U C99G C116U,-0.689
17,A23U C38U C114U G126A,≤ -4.2
18,A23G G86U C93U A150U,-3.88
19,A24U U31A C63G C76A,-3.16
20,A22U C38A G59A C85U C95A,-0.962
21,A22U C57U U78A C79U G84C G117C,≤ -4.2
22,A24C U53A G81C C95U G141A,≤ -4.2
23,A23C A40U C95U U134A U151A,≤ -4.2
24,G25C C54U A73G G84A C85A A89C,≤ -4.2

row,Variant,polymerase ribozyme fitness (log ratio)
1,A23C G67A A73U C96U G140C,≤ -4.2
2,A24C A26U U31A G68U C87A A89G A98G C132G,≤ -4.2
3,A23U G42C G88C C105G C116G,≤ -4.2
4,A22U A24U U44A C93A C96U C118U,≤ -4.2
5,A23U C108A G143C,≤ -4.2
6,A22U C57U G70A G81C G83C G100C A106C G133C,≤ -4.2
7,A23U C72U G83A U109A U151G,≤ -4.2
8,A22U G143C,-1.09
9,A24G A47G G48A C75U G86A,≤ -4.2
10,A22U A41C G70C U82G,≤ -4.2
11,A22G U31C G94C,0.086
12,G25C,-2.52
13,G25U,-1.73
14,G25A,-1.62
15,A23U A29U,-3.88
16,A24G G71C C79G C85A G124U U130G U148C,≤ -4.2
17,G25U A29U G62U C85G A142C,≤ -4.2
18,A22U C99U U101G A115U U151G,≤ -4.2
19,A22U A40C G65A,-3.81
20,A24U G83U G136A U146C A150G,-3.59
21,A24C G58A G59A A147C,≤ -4.2
22,G25C G48A C87U A142G,-4.11
23,A23U G80U A91U G143C A150G,≤ -4.2
24,A23C U53A C93U U134G,≤ -4.2

row,Variant,polymerase ribozyme fitness (log ratio)
1,A23G U101A,-3.18
2,A23U C57A G92C C149G,≤ -4.2
3,A24U C36A U44A C72G C95A A119G G140C,≤ -4.2
4,A23U A29G U101C,≤ -4.2
5,A23U G46U G67U C96G U146G U151A,≤ -4.2
6,A23U U56A A73U G86A C93G C131G U139C,≤ -4.2
7,A22U C125U,-0.442
8,A24U G83U C85G G126U,≤ -4.2
9,A23G G86A G100A,≤ -4.2
10,G25A A30G A41U G50A C87U,≤ -4.2
11,A23U A52G C76U C79A C103A,≤ -4.2
12,A23C G84U A106U G117U C118U C123U A142G,≤ -4.2
13,A22U A73G U82A,1.72
14,G25C C27U U45C G71U U82A G83A G92U,≤ -4.2
15,A24U U45A,-3
16,A22U C27G G50C G58C A97G C103G A110U U139A,≤ -4.2
17,A22U G50C U53G G88C C93U C96U C108U,≤ -4.2
18,A24U U148C,-2.14
19,A23U G42C G83A,≤ -4.2
20,A24C U56G G59C A91U U144C G152U,≤ -4.2
21,A24G U31C,-3.52
22,A23U U44A U55A A122U,≤ -4.2
23,A24U G86C,-2.81
